Measurements taken from patent US20240301067A1 (WUXI BIOLOGICS IRELAND, published 2024).
Changes are numbered by the printed parent chain. Names may count otherwise. Values belong to the binder of their own block, whether it stands above or below them.

Experiments:
[1] = molecular target: T1, Human BTLA extracellular domain, His (human, UniProt Q7Z6A9 31-157); test: ELISA, coated antigen 1 ug/mL, antibody 100 nM, HRP goat anti-human IgG
T1 construct: extracellular domain; Bought; also called hBTLA.ECD.His; not shown: His tag
T1 sequence (looked up): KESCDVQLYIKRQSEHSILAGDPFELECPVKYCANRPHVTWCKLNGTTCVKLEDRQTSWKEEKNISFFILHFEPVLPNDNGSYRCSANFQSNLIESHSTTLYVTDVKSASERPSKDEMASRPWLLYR
Method: Plates were pre-coated with 1 μg/mL, 100 μL per well of hPD-1.ECD.mFc, hCD28.ECD.mFc, hCTLA-4.ECD.His, hICOS.ECD.mFc or hBTLA.ECD.His at 4° C. overnight. After 1-hour blocking using 200 μL of 1×PBS/2% BSA, testing antibodies were added to the plates at a concentration of 100 nM. The plates were incubated at ambient temperature for 1 hour. The binding of the antibodies to the immobilized proteins was detected by HRP-labeled goat anti-human IgG antibody. The color was developed by dispensing 100 μL of TMB substrate, and then stopped by 100 μL of 2N HCl. The absorbance was read at 450 nm and 540 nm using a microplate spectrophotometer.

[2] = molecular target: T2, Human PD-1 extracellular domain, mFc tag (human, UniProt Q15116 25-170); test: ELISA competition on coated hPro1.ECD.mFc; competitor hPro1L2.ECD.His; experiment 2
T2 construct: extracellular domain; also called hPro1.ECD.mFc; hPD-1.ECD.mFc; not shown: mouse Fc tag at C-terminus
T2 sequence (Q15116 25-170): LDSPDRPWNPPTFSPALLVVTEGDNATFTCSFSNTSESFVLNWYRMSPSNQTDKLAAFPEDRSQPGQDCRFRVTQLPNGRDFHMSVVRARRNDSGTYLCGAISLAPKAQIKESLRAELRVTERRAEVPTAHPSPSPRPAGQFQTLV
Method: Plates were pre-coated with 1 μg/mL, 100 μL per well of human PD-1 ECD (hPro1.ECD.mFc) at 4° C. overnight. After 1-hour blocking using 200 μL of 1×PBS/2% BSA, constant concentration of his tagged human PD-L2 ECD (hPro1L2.ECD.His) and various concentrations of testing antibodies (3-fold serially diluted from 66.7 nM to 0.003 nM) were pre-mixed and added to the plates. After 2-hour incubation at ambient temperature, the binding of the ligand to the immobilized protein was detected by HRP-labeled goat anti-His antibody. The color was developed by dispensing 100 μL of TMB substrate, and then stopped by 100 μL of 2N HCl. The absorbance was read at 450 nm and 540 nm using a microplate spectrophotometer.

[3] = molecular target: T3, Human PD-1 on CHO-S cells (human, UniProt Q15116 25-288); test: FACS on CHO-S.hPro1.C6 cells, antibody kept 0 to 14 days in human serum at 37 C, PE goat anti-human IgG
T3 construct: whole, on cells; also called CHO-S.hPro1.C6; WBP305.CHO-S.hPro1.C6
T3 sequence (Q15116 25-288): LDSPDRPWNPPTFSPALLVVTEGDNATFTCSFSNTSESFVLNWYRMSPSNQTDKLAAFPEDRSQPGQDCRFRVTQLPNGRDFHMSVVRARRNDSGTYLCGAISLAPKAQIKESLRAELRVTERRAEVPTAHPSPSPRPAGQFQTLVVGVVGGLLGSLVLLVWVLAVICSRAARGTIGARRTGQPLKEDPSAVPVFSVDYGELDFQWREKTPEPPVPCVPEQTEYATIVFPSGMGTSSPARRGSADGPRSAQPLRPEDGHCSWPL
Method: The human PD-1 transfected cell line WBP305-CHO-S.hPro1.C6 cells (1×10⁵ cells/well) were incubated with various concentrations of serum treated W3056 anti-PD-1 antibodies (3-fold serially diluted from 129.9 nM to 0.0007 nM) at 4° C. for 1 hour. After washing with 1×PBS/1% BSA, the secondary antibody PE-labeled goat anti-human IgG was applied and incubated with cells at 4° C. for 1 hour. Human IgG4 isotype antibody was used as negative control. The cells were then washed and resuspended in 1×PBS/1% BSA. MFI of the cells was measured by a flow cytometer (BD) and analyzed by FlowJo.

[4] = molecular target: T4, Cynomolgus monkey PD-1 on transiently transfected 293F cells (cynomolgus monkey); test: FACS on cyno PD-1 transfected 293F cells, experiment 2
T4 construct: whole, on cells; also called cell surface cynomolgus PD-1; cyno PD-1
Method: Cynomolgus monkey PD-1 (GenBank Accession No. NP_001271065.1) transient transfected 293F cells (2×10⁵ cells/well) were incubated with various concentrations of anti-PD-1 antibodies (3-fold serially diluted from 133.4 nM to 0.008 nM) at 4° C. for 1 hour. After washing with 1×PBS/1% BSA, the secondary antibody PE-labeled goat anti-human IgG was applied and incubated with cells at 4° C. for 1 hour. Anti-human PD-1 antibodies BMK1 and BMK3 were used as positive control. Human IgG4 isotype antibody was used as negative control. The cells were then washed and re-suspended in 1×PBS/1% BSA. MFI of the cells was measured by a flow cytometer and analyzed by FlowJo (version 7.6.1).

[5] = molecular target: T5, Mouse PD-1 (soluble analyte in SPR, Table 11) (mouse, UniProt Q02242 25-167, limits assumed); test: SPR Biacore 8K; antibody captured on anti-human Fc chip, PD-1 injected; 1:1 fit
T5 sequence (looked up): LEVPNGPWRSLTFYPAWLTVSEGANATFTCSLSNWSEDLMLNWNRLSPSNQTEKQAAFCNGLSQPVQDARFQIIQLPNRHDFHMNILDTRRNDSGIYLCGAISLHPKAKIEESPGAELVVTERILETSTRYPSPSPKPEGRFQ
Method: (§1) Antibody binding affinity to human, mouse and cynomolgus PD-1 was detected using Biacore 8K. W3056-AP17R1-2H2-Z1-R1-14A1-FC (IgG4.SP) was captured on an anti-human Fc IgG antibody immobilized CM5 sensor chip (GE). Human, mouse and cynomolgus PD-1 at different concentrations were injected over the sensor chip at a flow rate of 30 uL/min for an association phase of 120 s, followed by 150 s dissociation. The chip was then regenerated by 10 mM Glycine pH 1.5 after each binding cycle.
(§2) The sensorgrams of blank surface and buffer channel were subtracted from the test sensorgrams. The experimental data was fitted by 1:1 model using Langmiur analysis. Molecular weight of 40, 45 and 40 kDa was used to calculate the molar concentration of analyte human, mouse and cynomolgus PD-1 respectively.

[6] = molecular target: Human PD-1 (soluble analyte in SPR, Table 11) (human, UniProt Q15116 25-167); test: as above
Human PD-1 (soluble analyte in SPR, Table 11), sequence (Q15116 25-167 limits assumed): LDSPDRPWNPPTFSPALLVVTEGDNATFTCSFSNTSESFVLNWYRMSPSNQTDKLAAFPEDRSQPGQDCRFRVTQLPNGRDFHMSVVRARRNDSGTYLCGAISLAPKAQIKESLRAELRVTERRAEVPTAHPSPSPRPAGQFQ
Method: as §1, §2

[7] = molecular target: T6, Cynomolgus PD-1 (soluble analyte in SPR, Table 11) (cynomolgus, UniProt B0LAJ3 25-170); test: as above
T6 construct: also called cyno PD-1
T6 sequence (B0LAJ3 entry or part of it limits assumed): as the sequence (Q15116 25-170) above, with D2E, P10A, V19L, T35A, Q75R, T144A counted along it
Method: as §1, §2

binding result [1]: no binding (tested: 100 nM)
B1: W3056-AP17R1-2H2-FC(IgG4.SP) (Fc fusion)
chain: QVQLVESGGGLVQPGGSLRLSCAASDSIDSLVNMGWYRQAPGKQRELVALIANYITHYADFVKGRFTISRDAAKNTVNLQMSSLKPEDTAVYYCYARNIIVDYWGQGTQVTVSS
notes: VHH fused to Fc of human IgG4 S228P; also called W3056 lead parental antibody (VHH-Fc(hIgG4) fusion); not shown: Fc of human IgG4 (hIgG4.S228P)

IC50 [2]: 0.886 nM
EC50 (read off the curve) [3]: 1 to 2 nM
binding result [1]: no binding (tested: 100 nM)
EC50 [4]: 1.98 nM
Kd [5]: 28.7 nM
koff [5]: 0.00422 s⁻¹
kon [5]: 147000 M⁻¹ s⁻¹
Kd [6]: 3.45 nM
koff [6]: 0.000857 s⁻¹
kon [6]: 248000 M⁻¹ s⁻¹
Kd [7]: 8.53 nM
koff [7]: 0.00177 s⁻¹
kon [7]: 208000 M⁻¹ s⁻¹
B2: W3056-AP17R1-2H2-Z1-R1-14A1-FC(IgG4.SP) (Fc fusion)
chain: B1 chain with L11V, N53T, A72N, A73S, V77L, N78Y, S82N, K85R, P86A, Q109L
notes: also called W3056 lead antibody (VHH-Fc(hIgG4) fusion); not shown: Fc of human IgG4 (hIgG4.S228P)
